According to patent US20160194399A1 (CYTOMX THERAPEUTICS, published 2016):

How the values were obtained:
[1] = target: T1, SP34-binding peptide 15864; experiment: flow cytometry on peptide-displaying E. coli, 1 nM SP34-dylight-488 with 100 nM isotype control, normalised to peptide expression (yPet-Mona)
T1 peptide: FMCQQRMWGNEFCHQ

[2] = target: T2, SP34-binding peptide 15003; experiment: as above
T2 peptide: GYRWGCEWNCGGITT

[3] = target: T3, SP34-binding peptide 15860; experiment: as above
T3 peptide: VYYCGGNESLCGERR

[4] = target: T4, SP34-binding peptide 14995; experiment: as above
T4 peptide: YSLWGCEWGCDRGLY

[5] = target: T5, SP34-binding peptide 15263; experiment: as above
T5 peptide: WYSGGCEAFCGILSS

[6] = target: T6, SP34-binding peptide 15286; experiment: as above
T6 peptide: GYSGGCEFRCYQLYS

[7] = target: T7, SP34-binding peptide 15865; experiment: as above
T7 peptide: MMYCGGNEVLCGPRV

[8] = target: T1, SP34-binding peptide 15864; experiment: flow cytometry on peptide-displaying E. coli, 1 nM SP34-dylight-488 with 100 nM free human CD3ε as competitor, normalised to peptide expression (yPet-Mona)
[9] = target: T2, SP34-binding peptide 15003; experiment: as above
[10] = target: T3, SP34-binding peptide 15860; experiment: as above
[11] = target: T4, SP34-binding peptide 14995; experiment: as above
[12] = target: T5, SP34-binding peptide 15263; experiment: as above
[13] = target: T6, SP34-binding peptide 15286; experiment: as above
[14] = target: T7, SP34-binding peptide 15865; experiment: as above
[15] = target: T1, SP34-binding peptide 15864; experiment: flow cytometry on peptide-displaying E. coli, 10 nM SP34-dylight-488 with 100 nM isotype control, normalised to peptide expression (yPet-Mona)
[16] = target: T2, SP34-binding peptide 15003; experiment: as above
[17] = target: T3, SP34-binding peptide 15860; experiment: as above
[18] = target: T4, SP34-binding peptide 14995; experiment: as above
[19] = target: T5, SP34-binding peptide 15263; experiment: as above
[20] = target: T6, SP34-binding peptide 15286; experiment: as above
[21] = target: T7, SP34-binding peptide 15865; experiment: as above
[22] = target: T1, SP34-binding peptide 15864; experiment: flow cytometry on peptide-displaying E. coli, 100 nM SP34-dylight-488 with 100 nM isotype control, normalised to peptide expression (yPet-Mona)
[23] = target: T2, SP34-binding peptide 15003; experiment: as above
[24] = target: T3, SP34-binding peptide 15860; experiment: as above
[25] = target: T4, SP34-binding peptide 14995; experiment: as above
[26] = target: T5, SP34-binding peptide 15263; experiment: as above
[27] = target: T6, SP34-binding peptide 15286; experiment: as above
[28] = target: T7, SP34-binding peptide 15865; experiment: as above
[29] = target: T1, SP34-binding peptide 15864; experiment: flow cytometry on peptide-displaying E. coli, 0.1 nM SP34-dylight-488 with 100 nM isotype control, normalised to peptide expression (yPet-Mona)
[30] = target: T2, SP34-binding peptide 15003; experiment: as above
[31] = target: T3, SP34-binding peptide 15860; experiment: as above
[32] = target: T4, SP34-binding peptide 14995; experiment: as above
[33] = target: T5, SP34-binding peptide 15263; experiment: as above
[34] = target: T6, SP34-binding peptide 15286; experiment: as above
[35] = target: T7, SP34-binding peptide 15865; experiment: as above

B1: Anti-CD3ε antibody SP34 (antibody, V domains shown)
VH: EVQLVESGGGLVQPKGSLKLSCAASGFTFNTYAMNWVRQAPGKGLEWVARIRSKYNNYATYYADSVKDRFTISRDDSQSILYLQMNNLKTEDTAMYYCVRHGNFGNSYVSWFAYWGQGTLVTVSA
VL: QAVVTQESALTTSPGETVTLTCRSSTGAVTTSNYANWVQEKPDHLFTGLIGGTNKRAPGVPARFSGSLIGDKAALTITGAQTEDEAIYFCALWYSNLWVFGGGTKLTVL
notes: Bought mouse monoclonal (BD Biosciences Cat# 556610); also called SP34 antibody
- expression normalized binding [1]: 0.36
- expression normalized binding [2]: 0.2
- expression normalized binding [3]: 0.52
- expression normalized binding [4]: 0.13
- expression normalized binding [5]: 0.35
- expression normalized binding [6]: 0.42
- expression normalized binding [7]: 0.79
- expression normalized binding [8]: 0.3
- expression normalized binding [9]: 0.12
- expression normalized binding [10]: 0.51
- expression normalized binding [11]: 0.08
- expression normalized binding [12]: 0.34
- expression normalized binding [13]: 0.34
- expression normalized binding [14]: 0.26
- expression normalized binding [15]: 0.63
- expression normalized binding [16]: 0.39
- expression normalized binding [17]: 1.72
- expression normalized binding [18]: 0.11
- expression normalized binding [19]: 0.69
- expression normalized binding [20]: 0.66
- expression normalized binding [21]: 1.08
- expression normalized binding [22]: 1.88
- expression normalized binding [23]: 0.69
- expression normalized binding [24]: 4.55
- expression normalized binding [25]: 0.51
- expression normalized binding [26]: 2.28
- expression normalized binding [27]: 1.72
- expression normalized binding [28]: 2.24
- expression normalized binding [29]: 0.15
- expression normalized binding [30]: 0.11
- expression normalized binding [31]: 0.48
- expression normalized binding [32]: 0.08
- expression normalized binding [33]: 0.24
- expression normalized binding [34]: 0.28
- expression normalized binding [35]: 0.21
